Results as given in the supplement of paper PMC10567573.

B1: ADD1 (parent)
chain: GEGTGSPPKWQIGEQEFEALMRML

Variants of: B1
Experiment: protein stability index of a GFP-peptide fusion (GPS, HEK-293T) (PSI 1-6); higher = more stable
Details: c terminus: a fixed tail appended
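Note: lentivirally expressed fusions sorted by FACS into six bins by GFP to DsRed ratio, PSI derived from sequencing read proportions per bin multiplied by bin number.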

For GESTGSPPKWQIGEQEFEALMRML [G3S], which protein stability index is on record?
The protein stability index was 2.87.

With GEMTGSPPKWQIGEQEFEALMRML [G3M] as the variant, how does the protein stability index read?
The protein stability index was 3.01.

With GEFTGSPPKWQIGEQEFEALMRML [G3F] as the variant, how does the protein stability index read?
The protein stability index was 2.89.

Which protein stability index does the source give for GENTGSPPKWQIGEQEFEALMRML [G3N] here?
Its protein stability index is 3.51.

With GEETGSPPKWQIGEQEFEALMRML [G3E] as the variant, how does the protein stability index read?
Its protein stability index is 3.07.

With GEQTGSPPKWQIGEQEFEALMRML [G3Q] as the variant, how does the protein stability index read?
The protein stability index was 3.8.

Which protein stability index does the source give for GELTGSPPKWQIGEQEFEALMRML [G3L] here?
The protein stability index was 3.45.

With GEYTGSPPKWQIGEQEFEALMRML [G3Y] as the variant, how does the protein stability index read?
Its protein stability index is 3.63.

With GEATGSPPKWQIGEQEFEALMRML [G3A] as the variant, how does the protein stability index read?
Its protein stability index is 3.42.

For GEHTGSPPKWQIGEQEFEALMRML [G3H], which protein stability index is on record?
The protein stability index was 2.94.

With GECTGSPPKWQIGEQEFEALMRML [G3C] as the variant, how does the protein stability index read?
Its protein stability index is 3.6.

Which protein stability index does the source give for GERTGSPPKWQIGEQEFEALMRML [G3R] here?
Its protein stability index is 3.14.

For GEVTGSPPKWQIGEQEFEALMRML [G3V], which protein stability index is on record?
Its protein stability index is 3.41.

For GEKTGSPPKWQIGEQEFEALMRML [G3K], which protein stability index is on record?
The protein stability index was 2.64.

For GETTGSPPKWQIGEQEFEALMRML [G3T], which protein stability index is on record?
Its protein stability index is 3.54.

For GEPTGSPPKWQIGEQEFEALMRML [G3P], which protein stability index is on record?
The protein stability index was 3.14.

With GEWTGSPPKWQIGEQEFEALMRML [G3W] as the variant, how does the protein stability index read?
Its protein stability index is 2.49.

With GEDTGSPPKWQIGEQEFEALMRML [G3D] as the variant, how does the protein stability index read?
The protein stability index was 3.19.

Which protein stability index does the source give for GEITGSPPKWQIGEQEFEALMRML [G3I] here?
The protein stability index was 3.

With REGTGSPPKWQIGEQEFEALMRML [G1R] as the variant, how does the protein stability index read?
Its protein stability index is 3.26.

With IEGTGSPPKWQIGEQEFEALMRML [G1I] as the variant, how does the protein stability index read?
The protein stability index was 2.92.

With NEGTGSPPKWQIGEQEFEALMRML [G1N] as the variant, how does the protein stability index read?
Its protein stability index is 3.51.

With YEGTGSPPKWQIGEQEFEALMRML [G1Y] as the variant, how does the protein stability index read?
Its protein stability index is 3.13.

For EEGTGSPPKWQIGEQEFEALMRML [G1E], which protein stability index is on record?
Its protein stability index is 3.57.

For FEGTGSPPKWQIGEQEFEALMRML [G1F], which protein stability index is on record?
Its protein stability index is 3.06.

With HEGTGSPPKWQIGEQEFEALMRML [G1H] as the variant, how does the protein stability index read?
The protein stability index was 3.1.

Which protein stability index does the source give for SEGTGSPPKWQIGEQEFEALMRML [G1S] here?
Its protein stability index is 2.99.

With PEGTGSPPKWQIGEQEFEALMRML [G1P] as the variant, how does the protein stability index read?
Its protein stability index is 3.26.

With AEGTGSPPKWQIGEQEFEALMRML [G1A] as the variant, how does the protein stability index read?
The protein stability index was 3.28.

For WEGTGSPPKWQIGEQEFEALMRML [G1W], which protein stability index is on record?
Its protein stability index is 2.54.

With MEGTGSPPKWQIGEQEFEALMRML [G1M] as the variant, how does the protein stability index read?
Its protein stability index is 2.71.

For QEGTGSPPKWQIGEQEFEALMRML [G1Q], which protein stability index is on record?
Its protein stability index is 3.24.

Which protein stability index does the source give for CEGTGSPPKWQIGEQEFEALMRML [G1C] here?
The protein stability index was 2.88.

Which protein stability index does the source give for KEGTGSPPKWQIGEQEFEALMRML [G1K] here?
The protein stability index was 2.91.

For DEGTGSPPKWQIGEQEFEALMRML [G1D], which protein stability index is on record?
Its protein stability index is 3.66.

With VEGTGSPPKWQIGEQEFEALMRML [G1V] as the variant, how does the protein stability index read?
Its protein stability index is 2.49.

With LEGTGSPPKWQIGEQEFEALMRML [G1L] as the variant, how does the protein stability index read?
Its protein stability index is 3.32.

Which protein stability index does the source give for TEGTGSPPKWQIGEQEFEALMRML [G1T] here?
Its protein stability index is 2.94.

With GSGTGSPPKWQIGEQEFEALMRML [E2S] as the variant, how does the protein stability index read?
Its protein stability index is 2.73.

With GKGTGSPPKWQIGEQEFEALMRML [E2K] as the variant, how does the protein stability index read?
The protein stability index was 2.3.

Which protein stability index does the source give for GHGTGSPPKWQIGEQEFEALMRML [E2H] here?
The protein stability index was 2.96.

Which protein stability index does the source give for GNGTGSPPKWQIGEQEFEALMRML [E2N] here?
Its protein stability index is 2.77.

For GYGTGSPPKWQIGEQEFEALMRML [E2Y], which protein stability index is on record?
The protein stability index was 2.28.

Which protein stability index does the source give for GMGTGSPPKWQIGEQEFEALMRML [E2M] here?
Its protein stability index is 2.91.

For GTGTGSPPKWQIGEQEFEALMRML [E2T], which protein stability index is on record?
Its protein stability index is 3.33.

Which protein stability index does the source give for GVGTGSPPKWQIGEQEFEALMRML [E2V] here?
The protein stability index was 3.94.

With GGGTGSPPKWQIGEQEFEALMRML [E2G] as the variant, how does the protein stability index read?
Its protein stability index is 3.06.

For GLGTGSPPKWQIGEQEFEALMRML [E2L], which protein stability index is on record?
Its protein stability index is 3.15.

For GDGTGSPPKWQIGEQEFEALMRML [E2D], which protein stability index is on record?
The protein stability index was 2.79.

Which protein stability index does the source give for GIGTGSPPKWQIGEQEFEALMRML [E2I] here?
Its protein stability index is 4.01.

With GPGTGSPPKWQIGEQEFEALMRML [E2P] as the variant, how does the protein stability index read?
The protein stability index was 3.06.

Which protein stability index does the source give for GWGTGSPPKWQIGEQEFEALMRML [E2W] here?
Its protein stability index is 2.8.

Which protein stability index does the source give for GRGTGSPPKWQIGEQEFEALMRML [E2R] here?
Its protein stability index is 3.16.

For GQGTGSPPKWQIGEQEFEALMRML [E2Q], which protein stability index is on record?
Its protein stability index is 3.53.

Which protein stability index does the source give for GFGTGSPPKWQIGEQEFEALMRML [E2F] here?
Its protein stability index is 2.73.

Which protein stability index does the source give for GCGTGSPPKWQIGEQEFEALMRML [E2C] here?
Its protein stability index is 3.14.

For GEGTGSPPYWQIGEQEFEALMRML [K9Y], which protein stability index is on record?
The protein stability index was 3.43.

With GEGTGSPPFWQIGEQEFEALMRML [K9F] as the variant, how does the protein stability index read?
The protein stability index was 2.8.

For GEGTGSPPWWQIGEQEFEALMRML [K9W], which protein stability index is on record?
The protein stability index was 2.63.

Which protein stability index does the source give for GEGTGSPPGWQIGEQEFEALMRML [K9G] here?
The protein stability index was 3.14.

With GEGTGSPPRWQIGEQEFEALMRML [K9R] as the variant, how does the protein stability index read?
Its protein stability index is 3.07.

For GEGTGSPPVWQIGEQEFEALMRML [K9V], which protein stability index is on record?
The protein stability index was 2.49.

Which protein stability index does the source give for GEGTGSPPNWQIGEQEFEALMRML [K9N] here?
The protein stability index was 3.53.

Which protein stability index does the source give for GEGTGSPPQWQIGEQEFEALMRML [K9Q] here?
The protein stability index was 3.25.

With GEGTGSPPLWQIGEQEFEALMRML [K9L] as the variant, how does the protein stability index read?
Its protein stability index is 2.34.

With GEGTGSPPIWQIGEQEFEALMRML [K9I] as the variant, how does the protein stability index read?
The protein stability index was 2.58.

For GEGTGSPPAWQIGEQEFEALMRML [K9A], which protein stability index is on record?
The protein stability index was 3.76.

For GEGTGSPPTWQIGEQEFEALMRML [K9T], which protein stability index is on record?
Its protein stability index is 2.95.

For GEGTGSPPPWQIGEQEFEALMRML [K9P], which protein stability index is on record?
The protein stability index was 3.42.

For GEGTGSPPEWQIGEQEFEALMRML [K9E], which protein stability index is on record?
Its protein stability index is 3.82.

Which protein stability index does the source give for GEGTGSPPSWQIGEQEFEALMRML [K9S] here?
The protein stability index was 3.48.

With GEGTGSPPHWQIGEQEFEALMRML [K9H] as the variant, how does the protein stability index read?
The protein stability index was 3.08.

For GEGTGSPPMWQIGEQEFEALMRML [K9M], which protein stability index is on record?
The protein stability index was 2.93.

Which protein stability index does the source give for GEGTGSPPCWQIGEQEFEALMRML [K9C] here?
Its protein stability index is 2.28.

Which protein stability index does the source give for GEGTGSPPDWQIGEQEFEALMRML [K9D] here?
The protein stability index was 3.33.

For GEGTGSYPKWQIGEQEFEALMRML [P7Y], which protein stability index is on record?
Its protein stability index is 2.14.

Which protein stability index does the source give for GEGTGSLPKWQIGEQEFEALMRML [P7L] here?
The protein stability index was 2.33.

For GEGTGSAPKWQIGEQEFEALMRML [P7A], which protein stability index is on record?
Its protein stability index is 2.92.

For GEGTGSQPKWQIGEQEFEALMRML [P7Q], which protein stability index is on record?
The protein stability index was 3.04.

For GEGTGSHPKWQIGEQEFEALMRML [P7H], which protein stability index is on record?
Its protein stability index is 2.89.

Which protein stability index does the source give for GEGTGSIPKWQIGEQEFEALMRML [P7I] here?
The protein stability index was 2.46.

Which protein stability index does the source give for GEGTGSDPKWQIGEQEFEALMRML [P7D] here?
The protein stability index was 3.09.

For GEGTGSSPKWQIGEQEFEALMRML [P7S], which protein stability index is on record?
The protein stability index was 2.45.

For GEGTGSWPKWQIGEQEFEALMRML [P7W], which protein stability index is on record?
Its protein stability index is 2.08.

Which protein stability index does the source give for GEGTGSKPKWQIGEQEFEALMRML [P7K] here?
Its protein stability index is 3.23.

Which protein stability index does the source give for GEGTGSNPKWQIGEQEFEALMRML [P7N] here?
Its protein stability index is 2.88.

Which protein stability index does the source give for GEGTGSRPKWQIGEQEFEALMRML [P7R] here?
Its protein stability index is 2.63.

With GEGTGSMPKWQIGEQEFEALMRML [P7M] as the variant, how does the protein stability index read?
Its protein stability index is 2.33.

For GEGTGSCPKWQIGEQEFEALMRML [P7C], which protein stability index is on record?
Its protein stability index is 2.59.

Which protein stability index does the source give for GEGTGSTPKWQIGEQEFEALMRML [P7T] here?
Its protein stability index is 2.23.

For GEGTGSVPKWQIGEQEFEALMRML [P7V], which protein stability index is on record?
The protein stability index was 2.62.

With GEGTGSFPKWQIGEQEFEALMRML [P7F] as the variant, how does the protein stability index read?
The protein stability index was 3.61.

Which protein stability index does the source give for GEGTGSEPKWQIGEQEFEALMRML [P7E] here?
Its protein stability index is 3.04.

With GEGTGSGPKWQIGEQEFEALMRML [P7G] as the variant, how does the protein stability index read?
The protein stability index was 2.52.
